In publication PMC6663966:

Assays:
Experiment in all cases: purified protein
Details in all cases: HEPES buffer supplemented with zinc; room temperature
[1] = system: C[C@H]1[C@H](NC(=O)/C(=N\OC(C)(C)C(=O)O)c2csc(N)n2)C(=O)N1S(=O)(=O)O
[2] = system: CO/N=C(\C(=O)N[C@@H]1C(=O)N2C(C(=O)[O-])=C(C[N+]3(C)CCCC3)CS[C@H]12)c1csc(N)n1
[3] = system: C[C@@H](O)[C@H]1C(=O)N2C(C(=O)O)=C(SCCN=CN)C[C@H]12
[4] = system: CO[C@@]1(NC(=O)Cc2cccs2)C(=O)N2C(C(=O)O)=C(COC(N)=O)CS[C@@H]21
[5] = system: C[C@@H](O)[C@H]1C(=O)N2C(C(=O)O)=C(S[C@@H]3CN[C@H](C(=O)Nc4cccc(C(=O)O)c4)C3)[C@H](C)[C@H]12
[6] = system: CC(=O)OCC1=C(C(=O)O)N2C(=O)[C@@H](NC(=O)Cc3cccs3)[C@H]2SC1
[7] = system: CC(C)(O/N=C(\C(=O)N[C@@H]1C(=O)N2C(C(=O)[O-])=C(C[n+]3ccccc3)CS[C@H]12)c1csc(N)n1)C(=O)O
[8] = system: CC1(C)S[C@@H]2[C@H](NC(=O)Cc3ccccc3)C(=O)N2[C@H]1C(=O)O
[9] = system: CCN1CCN(C(=O)N[C@@H](C(=O)N[C@@H]2C(=O)N3[C@@H]2SC(C)(C)[C@@H]3C(=O)O)c2ccccc2)C(=O)C1=O
[10] = system: C[C@@H](O)[C@H]1C(=O)N2C(C(=O)O)=C(S[C@@H]3CN[C@H](C(=O)N(C)C)C3)[C@H](C)[C@H]12
[11] = system: CO/N=C(\C(=O)N[C@@H]1C(=O)N2C(C(=O)O)=C(COC(C)=O)CS[C@H]12)c1csc(N)n1

Q: Which results are given for “PAN-1 (Pseudobacteriovorax antillogorgiicola)”?
A: kcat [1]: < 0.01 s⁻¹; kcat [2]: < 0.01 s⁻¹; Km [3]: 470.5 µM; kcat [3]: 43.8 s⁻¹; kcat/Km [3]: 93100 M⁻¹ s⁻¹; Km [4]: 13.3 µM; kcat [4]: 1.9 s⁻¹; kcat/Km [4]: 143000 M⁻¹ s⁻¹; Km [5]: 368.5 µM; kcat [5]: 2.9 s⁻¹; kcat/Km [5]: 7800 M⁻¹ s⁻¹; Km [6]: 32.2 µM; kcat [6]: 6.9 s⁻¹; kcat/Km [6]: 214000 M⁻¹ s⁻¹; Km [7]: 144.4 µM; kcat [7]: 8.1 s⁻¹; kcat/Km [7]: 56000 M⁻¹ s⁻¹; Km [8]: 161 µM; kcat [8]: 23.6 s⁻¹; kcat/Km [8]: 146000 M⁻¹ s⁻¹; Km [9]: 1074.2 µM; kcat [9]: 73.6 s⁻¹; kcat/Km [9]: 68000 M⁻¹ s⁻¹; Km [10]: 386 µM; kcat [10]: 22.9 s⁻¹; kcat/Km [10]: 59000 M⁻¹ s⁻¹; Km [11]: 245.7 µM; kcat [11]: 3.9 s⁻¹; kcat/Km [11]: 16000 M⁻¹ s⁻¹
